Test results as given in article PMC11139201, “RsaL is a self‐regulatory switch that controls alternative biosynthesis of two AHL‐type quorum sensing signals in Pseudomonas aeruginosa PA1201”.

Biological target: RsaL (Pseudomonas aeruginosa PA1201, UniProt Q9X7H4 1-80)
Assay: EMSA; EMSA: 10 mM Tris-HCl pH 8.0, 1 mM EDTA, 5 mM MgCl2, 50 mM KCl, 2.5% glycerol, 30 ug/ml poly(dI-dC), 0.05% NP-40, room temperature 20 min; footprint: 100 ng probe in 40 ul, 30 min room temperature, DNase I 1 min 25 C
Conditions: protein: recombinant, tags: His (pET28a), chain copies: 2

| Binder | binding result (label: Cy5) | binding result |
| --- | --- | --- |
| PRO-II (dsDNA) DNA 1: AAATGAGATAGATTTCGGTGAACCCGGACCCTTGCTAGGCTCGAAGAAACGTCCGAAAAGATCAGAGCAATGGCTTCACACGAG DNA 2: CTCGTGTGAAGCCATTGCTCTGATCTTTTCGGACGTTTCTTCGAGCCTAGCAAGGGTCCGGGTTCACCGAAATCTATCTCATTT | binds | – |
| PRO-II-p (dsDNA) DNA 1: AAATGAGATAGGCCCCGGTGAACCCGGACCCTTGCTAGGCTCGAAGAAACGTCCGAAAAGATCAGAGCAATGGCTTCACACGAG DNA 2: CTCGTGTGAAGCCATTGCTCTGATCTTTTCGGACGTTTCTTCGAGCCTAGCAAGGGTCCGGGTTCACCGGGGCCTATCTCATTT | – | no binding |
